Data on three molecules can be found in paper PMC10070186 (2023).

In general, Kd refers to a measure of binding affinity in units of concentration.

For one assay, the target named is T1, CgnC (Chondromyces crocatus CM c5).
T1 chain: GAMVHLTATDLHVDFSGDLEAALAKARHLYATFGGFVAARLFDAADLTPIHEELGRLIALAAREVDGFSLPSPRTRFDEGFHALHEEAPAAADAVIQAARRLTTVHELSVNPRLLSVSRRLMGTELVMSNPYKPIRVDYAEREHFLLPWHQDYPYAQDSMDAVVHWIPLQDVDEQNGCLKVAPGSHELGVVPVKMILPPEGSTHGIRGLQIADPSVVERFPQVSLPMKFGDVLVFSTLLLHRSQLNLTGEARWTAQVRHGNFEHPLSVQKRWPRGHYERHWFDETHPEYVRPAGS
The assay can be described thus: MST; CgnA at constant high concentration.

The target of the next assay is T2, CgnB (Chondromyces crocatus CM c5).
T2 chain: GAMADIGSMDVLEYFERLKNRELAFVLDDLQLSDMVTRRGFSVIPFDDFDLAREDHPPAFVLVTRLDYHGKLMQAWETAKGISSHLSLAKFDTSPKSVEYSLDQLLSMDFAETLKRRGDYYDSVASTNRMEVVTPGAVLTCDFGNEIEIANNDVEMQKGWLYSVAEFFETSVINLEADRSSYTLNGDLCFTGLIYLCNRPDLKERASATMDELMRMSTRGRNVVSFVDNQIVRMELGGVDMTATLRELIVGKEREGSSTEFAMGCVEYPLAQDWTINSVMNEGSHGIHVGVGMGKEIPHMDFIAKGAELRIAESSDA
Put plainly: MST.

Assay [1] has as its target T3, CgnE (Chondromyces crocatus CM c5).
T3 chain: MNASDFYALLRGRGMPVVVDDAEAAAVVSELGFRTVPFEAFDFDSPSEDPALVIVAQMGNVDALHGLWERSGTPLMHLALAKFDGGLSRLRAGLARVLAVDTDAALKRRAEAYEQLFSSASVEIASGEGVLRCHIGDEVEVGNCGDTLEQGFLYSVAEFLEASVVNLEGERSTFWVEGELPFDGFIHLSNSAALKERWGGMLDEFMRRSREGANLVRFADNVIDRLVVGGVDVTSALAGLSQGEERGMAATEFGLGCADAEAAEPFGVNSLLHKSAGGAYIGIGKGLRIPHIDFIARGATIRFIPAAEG
The assay can be described thus: MST.

The target of assay [2] is T3, CgnE. Put plainly: CgnE titrated.
Assay [3] has as its target T3, CgnE. Put plainly: MST; CgnA at constant high concentration.
Assay [4] concerns the target T4, CgnB in the presence of CgnA (400 µM) (Chondromyces crocatus CM c5).
T4 chain: T2 chain
Put plainly: CgnA present with CgnC, CgnB titrated.

Assay [5] deals with T5, CgnE in the presence of CgnA (400 µM) (Chondromyces crocatus CM c5).
T5 chain: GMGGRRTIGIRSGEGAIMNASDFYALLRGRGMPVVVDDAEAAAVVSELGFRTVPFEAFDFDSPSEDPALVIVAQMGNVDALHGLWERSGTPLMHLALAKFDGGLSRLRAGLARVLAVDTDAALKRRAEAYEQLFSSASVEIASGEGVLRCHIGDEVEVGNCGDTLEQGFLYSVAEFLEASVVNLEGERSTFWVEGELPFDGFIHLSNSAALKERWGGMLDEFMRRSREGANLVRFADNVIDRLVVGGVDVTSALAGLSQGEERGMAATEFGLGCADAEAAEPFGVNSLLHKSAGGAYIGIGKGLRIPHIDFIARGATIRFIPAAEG
The assay can be described thus: CgnA present with CgnC, CgnE titrated.

B1: CgnB in the presence of CgnA (400 µM) (complex)
chain: T2 chain
modifications: sequence from Supplementary Table 8 (the excerpt mark inside it is read as contiguous); N-terminal GA is a cloning remnant; dimer by size-exclusion chromatography
As for B1, binding with CgnC was characterised by a dissociation constant (Kd) of 110 nM.

In turn, MKKTIKQISAGDRSKKGN [CgnA leader peptide (CgnA^LP)] had a Kd with CgnB of 78200 nM.

B2: CgnC (enzyme)
chain: T1 chain
modifications: sequence from Supplementary Table 8 (the excerpt mark inside it is read as contiguous); N-terminal GA is a cloning remnant; dimer by size-exclusion chromatography
B2: the Kd is 1100 nM with CgnE [1]; 1100 nM with CgnE [2]; 900 nM with CgnE [3]; 110 nM in assay [4]; 900 nM in assay [5].
